Patent publication US20240190986A1 (ZHEJIANG NANOMAB TECHNOLOGY CENTER, published 2024)

B1: M137 (VHH)
VHH: QVQLVESGGGLVQAGGSLSLSCAASGSLSSINAMGWYRQLPEMRQLVATMGSDGKTYYADSVKGRFTISRDYAKYTVSLQMNNLRPEDTAIYYCAADRFGAPIHDVDYWGKGTLVTVSV
notes: Nanoantibody in TG1 supernatant in the screening ELISA; also called clone M137
B2: M132 (VHH)
VHH: QVQLVESGGGLVQAGGSLSLSCVASGDAFSFDAMGWYRQFSGKVNERQLVVATSRDGRTAYGERVKGRFTASRDNSKNTLSLVMNNLQVEDTAIYYCAAGDDPKDYYWGQGTQVTVSS
notes: Nanoantibody in TG1 supernatant in the screening ELISA; also called clone M132
B3: M344-IgG4 (antibody, V domains shown)
VH: QVQLVESGGGLVQSGGSLRLSCVASGSAFSFDAMGWYRQFSATRRERQLVVATSRDGRTYYADSVKGRFTATRDNSKNSLYLEMNSLKPEDTAIYYCAAGDDPKNYSWGQGTQVTVSS
notes: also called M344 heavy chain antibody
B4: M344 (VHH)
VHH: B3 VH
notes: Nanoantibody in TG1 supernatant in the screening ELISA; also called clone M344
B5: M156-IgG4 (antibody, V domains shown)
VH: QVQLVESGGGLVQAGGSLRLSCAVSGISFEYYAIGWFRQAPGKEREAVSCTTSGTTSGGGVTDYADSLKGRFTISRDVAKNTVYLQMNNLTPEDTAVYYCAADIHCRGYVLFVPSDFGNWGQGTQVTVSS
notes: also called M156 heavy chain antibody
B6: M156 (VHH)
VHH: B5 VH
notes: Nanoantibody in TG1 supernatant in the screening ELISA; also called clone M156
B7: M143 (VHH)
VHH: EVQLVESGGGLVQAGGSLRLSCSASEKTFSIKYMGYYRQGPGIERKLVATIDTDGKTWYADSVKGRFTISRENGENEIGLEMNRLKPEDTAMYYCAGETGTYPKPEYWGQGTQVTVSS
notes: Nanoantibody in TG1 supernatant in the screening ELISA; also called clone M143
B8: M197 (VHH)
VHH: EVQLVESGGGLVQAGGSLRLSCAASGSHFGLNVVGWYRQAPGKQRELVASIGNSGRTTDYADSVKGRFTISKDNAQNTIYLQMNNLKPEDTAMYRCHLRVSVERGYWGQGTQVTVSS
notes: Nanoantibody in TG1 supernatant in the screening ELISA; also called clone M197
B9: M129-IgG4 (antibody, V domains shown)
VH: QVQLVESGGGSAQAGGSLILSCVASANLFTIDALGWYRQAPGPKRELVAAISSGGNKYYADAVKGRFTISRDTLTKTMWLQMNNLKPEDTAMYYCAAEDYGLGQRSWGMGTQVTVSS
notes: also called M129 heavy chain antibody
B10: M129 (VHH)
VHH: B9 VH
notes: Nanoantibody in TG1 supernatant in the screening ELISA; also called clone M129
B11: M224 (VHH)
VHH: QVQLVESGGGLVQPGGSLRLSCAASGFTFHYYAIGWFRQAPGKEREGVSCISSSGDSTWFSDSVKGRFTVSRDNAKNIVHLQMNNLKPEDTAVYYCAGTTRSGYVCYDAEPYDSWGQGTQVTVSS
notes: Nanoantibody in TG1 supernatant in the screening ELISA; also called clone M224
B12: M191 (VHH)
VHH: QVQLVESGGGLVQAGGSLRLSCAASASMGSISNMGWYRQAPGKERGNERNLVATIGSDGRTYYADSVKGRFTISRDNVKNTMILQMNFLKPEDTAMYYCAVEDRQRPGTENYYWGQGTQVTVSS
notes: Nanoantibody in TG1 supernatant in the screening ELISA; also called clone M191
B13: M169 (VHH)
VHH: EVQLVESGGGTVQPGESLRLSCEASGAVSTINAMGWYRQTPEMRKLVATMGSGGNTYYADSVKGRFTISRDFAGNTVDLQMNDLKPEDTGVYFCAADKFGADIKEVAYWGKGTLVTVSS
notes: Nanoantibody in TG1 supernatant in the screening ELISA; also called clone M169
B14: M004 (VHH)
VHH: EVQLVESGGGLVQAGGSLRLSCAASESISSIAYMGWYRRISEKERNLVATISSTGSTYYADSVKGRFTISRDNAKNTMYLQMNRLKPEDTAIYYCAASNKAYNDYDPDWGQGTQVTVSS
notes: Nanoantibody in TG1 supernatant in the screening ELISA; also called clone M004
B15: M210 (VHH)
VHH: QVQLVESGGGLVQPGGSLRLSCAASGITLDNYAIAWFRQAPGKKREGVSCISSNGNTYYQPSVKGRFTIARDNAKNTVYLHMNNLNPEDTAVYYCQVGQFSSSTTPVQAMSVMSLYADWGQGTQVTVSS
notes: Nanoantibody in TG1 supernatant in the screening ELISA; also called clone M210
B16: M2339-IgG4 (antibody, V domains shown)
VH: QLQLGASGGGLVQPGGSLRLSCALSGFTLRELDEFAIGWFRQAPGKEREGVSCISGTGGITHYADSVKGRFTISRDIAKTTVYLQMNSLNSEDTAVYYCAADERCTDRLIRPPTYWGQGTQVTVSS
notes: also called M2339 heavy chain antibody
B17: M2339 (VHH)
VHH: B16 VH
notes: Nanoantibody in TG1 supernatant in the screening ELISA; also called clone M2339
B18: M003-IgG4 (antibody, V domains shown)
VH: QVQLVESGGGLVQAGGSLRLSCTASGNIFSINAMGWYRQPPGKEWERELVATISSTNSDNTYYKESVKGRFTISTNTAKNTWYLQMNSLKPEDTAMYYCAAENFDRKDRYWAQGTQVTVSS
notes: also called M003 heavy chain antibody
B19: M182 (VHH)
VHH: QVQLVESGGGSVQAGGSLTLSCAASGAVSSINAMGWYRQTPEKVRQLVATMGSGGNTYYAASVKGRFTISRDYAKNTVALQMNHLLPEDTAVYYCAADRFGADIREVDYWGKGTQVTVSS
notes: Nanoantibody in TG1 supernatant in the screening ELISA; also called clone M182
B20: M119-IgG4 (antibody, V domains shown)
VH: EVQLVESGGGLVQPGGSLRLSCVASGSDLSFDAMGWYRQFSATVRERQLVVATSRDGRIYYGDSVKGRFTASRDNLKNSVDLEMNNLKPEDTAIYYCAAGDDPKNYDWGPGTQVTVSS
notes: also called M119 heavy chain antibody
B21: M119 (VHH)
VHH: B20 VH
notes: Nanoantibody in TG1 supernatant in the screening ELISA; also called clone M119
B22: M044-IgG4 (antibody, V domains shown)
VH: QVQVVESGGGFVQAGGSLRLSCAASTPIISIAYMGWYRQISEKERQLVATINSGGKTYYADSVKGRFTISRDNAKNTLYLQMNMLKPEDTGMYYCAASNKDYNDYDPDWGQGTQVTVSS
notes: also called M044 heavy chain antibody
B23: M118 (VHH)
VHH: EVQLVESGGGLVQAGGSLTLSCAASEHTFTIDAMGYYRQIPGRRNERQLVAAAGRTGTTYYNDAVKDRFTIYRDTSKETIILQMNNLRPEDTTMYYCAVERYSDQSRFFGPGTQVTVSS
notes: Nanoantibody in TG1 supernatant in the screening ELISA; also called clone M118

How the values were obtained:
MSLN.Fc protein = target: T1, MSLN.Fc protein (human, UniProt Q13421 296-598, limits assumed); experiment: ELISA, antigen coated, TG1 supernatant
T1 construct: also called MSLN·hFc; MSLN protein; not shown: human IgG Fc fragment

MD50 protein = target: T2, MD50 protein; experiment: ELISA, antigen coated, TG1 supernatant
T2 construct: range 487-580; also called proximal membrane fragment of mesothelin

[1] = target: T3, segment III of MSLN expressed on HEK293T cells (UniProt Q13421 487-598, limits assumed); experiment: flow cytometry on HEK293T cells expressing MSLN segment III, anti-human IgG PE secondary, fitted curve
T3 construct: domain: segment III of MSLN; also called HEK293T MSLN-III cells; MSLN segment III protein overexpressing cell line

[2] = target: T4, MSLN on SKOV3 and Aspc-1 tumor cells (UniProt Q13421 296-598); experiment: flow cytometry on SKOV3 tumor cells, anti-human IgG PE secondary, fitted curve
T4 construct: whole, on cells; Endogenous mesothelin of tumor cell lines; also called SKOV3 tumor cell line; AsPC-1 tumor cell line

MSLN·His protein [3] = target: T5, MSLN·His protein (human, UniProt Q13421 296-580, limits assumed); experiment: SPR (Biacore), antibody captured on protein A, MSLN·His as analyte
T5 construct: Bought protein; also called human MSLN·His antigen; not shown: His tag
Procedure: (1) Detection of affinity at protein level: the binding kinetics and affinity of heavy chain antibody to human MSLN·His antigen were determined using surface plasmon resonance (SPR). The purified antibody was flowed through the sensor chips pre-immobilized with protein A, and the antibody was captured by protein A. Then five different concentrations of MSLN·His protein were used as the mobile phase, and the binding time and dissociation time were 30 min and 60 min, respectively. Biacore Evaluation Software 2.0 (GE) was used to analyze the binding rate (kon, or ka), dissociation rate (koff, or kd) and equilibrium constant (KD). The rabbit antibody YP218, which binds to segment III of mesothelin, was selected as a positive control (Zhang et al., Sci Rep 2015, 21; 5:9928).

[4] = target: T4, MSLN on SKOV3 and Aspc-1 tumor cells; experiment: flow cytometry on Aspc-1 tumor cells, anti-human IgG PE secondary, fitted curve
MSLN·His protein [5] = target: T5, MSLN·His protein; experiment: ELISA, antigen coated, TG1 supernatant

T2 sequence (Q13421 495-588): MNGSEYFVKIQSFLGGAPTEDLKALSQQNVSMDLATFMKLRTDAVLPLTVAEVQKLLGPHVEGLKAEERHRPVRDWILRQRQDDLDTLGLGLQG
T3 sequence (Q13421 495-606 limits assumed): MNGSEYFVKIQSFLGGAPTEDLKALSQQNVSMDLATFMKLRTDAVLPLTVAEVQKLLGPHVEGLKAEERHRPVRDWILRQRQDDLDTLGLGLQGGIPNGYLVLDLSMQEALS
T5 sequence (Q13421 other isoform, or with tags, fused parts or gaps limits assumed): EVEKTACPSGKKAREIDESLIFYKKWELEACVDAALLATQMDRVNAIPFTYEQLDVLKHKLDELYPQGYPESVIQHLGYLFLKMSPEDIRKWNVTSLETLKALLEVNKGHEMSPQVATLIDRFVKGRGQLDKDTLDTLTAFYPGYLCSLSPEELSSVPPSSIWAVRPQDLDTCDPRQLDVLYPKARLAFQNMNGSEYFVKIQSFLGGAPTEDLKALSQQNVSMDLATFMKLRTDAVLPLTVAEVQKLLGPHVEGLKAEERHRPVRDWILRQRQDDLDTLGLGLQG
T4 sequence (Q13421 other isoform, or with tags, fused parts or gaps limits assumed): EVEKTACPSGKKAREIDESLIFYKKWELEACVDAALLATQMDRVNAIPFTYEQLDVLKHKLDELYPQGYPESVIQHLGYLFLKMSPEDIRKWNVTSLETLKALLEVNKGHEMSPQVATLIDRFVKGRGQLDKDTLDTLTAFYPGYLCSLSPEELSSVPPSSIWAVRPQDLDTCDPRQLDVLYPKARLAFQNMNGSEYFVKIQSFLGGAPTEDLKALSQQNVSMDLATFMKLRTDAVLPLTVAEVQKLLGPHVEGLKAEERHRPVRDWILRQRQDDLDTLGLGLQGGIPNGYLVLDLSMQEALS

| Binder | ELISA (OD450) (MSLN.Fc protein) | ELISA (OD450) (MD50 protein) | Kd (MSLN·His protein [3]) [nM] | koff (MSLN·His protein [3]) [s⁻¹] | kon (MSLN·His protein [3]) [M⁻¹ s⁻¹] | other results |
| --- | --- | --- | --- | --- | --- | --- |
| B1 | 1.27 | 2.09 |  |  |  |  |
| B2 | 1.34 | 1.17 |  |  |  |  |
| B3 |  |  | 0.07 | 2.35e-05 | 359000 | EC50 [1]: 3.39 nM; EC50 [2]: 1.36 nM; EC50 [4]: 3.59 nM |
| B4 | 2.22 | 2.08 |  |  |  |  |
| B5 |  |  | 0.09 | 5.4e-05 | 592000 | EC50 [1]: 4.15 nM; EC50 [2]: 1.05 nM; EC50 [4]: 5.37 nM |
| B6 | 1.67 | 1.53 |  |  |  |  |
| B7 | 1.62 | 1.3 |  |  |  |  |
| B8 | 1.21 | 1.69 |  |  |  |  |
| B9 |  |  | 0.04 | 5.37e-05 | 1.4e+06 | EC50 [1]: 6.24 nM; EC50 [2]: 1.85 nM; EC50 [4]: 2.79 nM |
| B10 | 2.4 | 1.66 |  |  |  |  |
| B11 | 1.45 | 1.78 |  |  |  |  |
| B12 | 1.69 | 1.71 |  |  |  |  |
| B13 | 1.36 | 1.19 |  |  |  |  |
| B14 | 1.1 | 1.81 |  |  |  |  |
| B15 | 1.95 | 0.823 |  |  |  |  |
| B16 |  |  | 0.264 | 1.82e-05 | 69000 |  |
| B17 |  |  |  |  |  | ELISA (OD450) (MSLN·His protein [5]): 2.15 OD450 |
| B18 |  |  | 0.49 | 0.000429 | 882000 | EC50 [1]: 4.95 nM; EC50 [2]: 1.62 nM; EC50 [4]: 5.31 nM |
| B19 | 1.03 | 1.14 |  |  |  |  |
| B20 |  |  | 0.12 | 9.58e-05 | 826000 | EC50 [1]: 3.91 nM; EC50 [2]: 1.63 nM; EC50 [4]: 4.25 nM |
| B21 | 2.49 | 1.46 |  |  |  |  |
| B22 |  |  | 2.1 | 7.5e-05 | 53700 | EC50 [1]: 10.6 nM; EC50 [2]: 0.512 nM; EC50 [4]: 17.4 nM |
| B23 | 2.05 | 2.06 |  |  |  |  |
